From patent publication US8624002B2, “Prostaglandin E2 binding proteins and uses thereof” (AbbVie, Inc., priority 2008, dated 2014)
Residue numbers refer to the chain shown, from its start. Several values for one entry are separate records, joined by “and”; a condition that tells them apart may be missing. Equal entries are not always repeated.

B1: 2B5-8.0: recombinant anti-PGE2 antibody from solved 2B5 sequence; VH SEQ ID NO 42, VL SEQ ID NO 43 (antibody, V domains shown)
VH: QVQLQQSGPELVRPGSSVKISCKASGYTFTKYWLGWVKQRPGHGLEWIGDIYPGYDYTHYNEKFKDKATLTVDTSSSTAYMQLSSLTSEDSAIYYCARSDGSSTYWGQGTLVTVSA
VL: DVLMTQTPLSLPVSLGDQASISCTSSQNIVHSNGNTYLEWYLQRPGQSPKLLIYKVSNRFSGVPDRFSGSGSGTVFTLKISRVEAEDLGVYYCFQVSHVPYTFGGGTKLEIKR
B2: Hu2B5.4: humanized 2B5-8.0; VH SEQ ID NO 66, VL SEQ ID NO 67 (antibody, V domains shown)
VH: EVQLVQSGAEVKKPGASVKVSCKASGYTFTKYWLGWVRQAPGQGLEWIGDIYPGYDYTHYNEKFKDRATLTVDTSTSTAYMELSSLRSDDTAVYYCARSDGSSTYWGQGTLVTVSS
VL: B1 VL with S14T, L15P, D17E, Q18P, R44K, K50Q, V75D, L88V, L109V

How the values were obtained:
[1] = Pharmacokinetics of 2B5.8.0 in Sprague-Dawley rats; type: in vivo; conditions: rat, IV 4 mg/kg
Method: Pharmacokinetic studies with mouse mAb 2B5.8.0 were carried out in Sprague Dawley rats and Balb/C mice. Male and female rats and mice were dosed intravenously or intraperitoneally (mice only) with a single dose of 4 mg/kg 2B5.8.0 and serum samples were analyzed using antigen capture based chemiluminescent MSD (Meso Scale Discovery) method (Meso Scale Discovery, Gaithersburg, Md.). Pharmacokinetic parameters were calculated by non-compartmental analysis using WinNonlin.
The following MSD assay was used to measure antibody concentration in rat and mouse serum. MSD streptavidin plates (Meso Scale Discovery, Gaithersburg, Md.) were washed with phosphate buffered saline containing 0.05% Tween-20 (Sigma, St. Louis, Mo.). Plates were blocked with 250 μL/well blocking solution (MSD Block, Meso Scale Discovery, diluted to 3% final concentration in PBS) for 1 hour, covered, with shaking (600 rpm) at room temperature. After washing, 70 μL of biotinylated PGE2 (Prostoglandin E2-biotinamide, Cayman Chemical, Ann Arbor, Mich., cat# 10006987, lot# 190831-191028, 0.01 ug/mL in assay buffer) was added to each well. The plates were covered and incubated with shaking (600 rpm) for 1 hour at room temperature
(§1) Prior to analysis, rat and mouse serum samples were thawed on ice, mixed gently, and centrifuged at 14,000 rpm for 3 minutes at 4° C. in an eppendorf centrifuge. Standard curve and control samples were prepared in rat and mouse serum. A Tecan Evo automated liquid handling station was used to dilute standard curve, high, medium, and low controls, and serum samples in assay buffer, keeping 1% final serum concentration constant. MSD plates were washed again and study samples, standard curve samples and blanks, as well as high, medium, and low controls were added (70 μL/well). The plates were covered, and incubated for 1 hour with shaking (600 rpm) at room temperature.
(§2) After incubation, the MSD plates were washed, and 70 μL of sulfo-tagged goat anti-mouse IgG (Meso Scale Discovery; diluted to 1 ug/mL in assay buffer) was added to each well. The MSD plates were covered, and incubated with shaking (600 rpm) for 1 hour at room temperature, then the plates were washed and developed with 2× Read Buffer (Meso Scale Discovery). Chemilumeniscence was measured within ten minutes on the MSD Sector Imager 6000.
(§3) Standard curves were analyzed using four-parameter logistic fit and sample concentrations were calculated by XLfit4 software version 2.2.1 Build 16, ([…].). Pharmacokinetic parameters were calculated for each animal using Winonlin software version 5.0.1 (Pharsight Corporation, Mountain View, Calif.) by noncompartmental analysis.
(§4) Surgically altered jugular vein cannulated, JVC) and regular male and female Sprague-Dawley Rats (approximately seven weeks old, weighing 240-390 grams) were purchased from Charles River Laboratories (Wilmington, Mass.). The animals were housed in rooms maintained at constant temperature and humidity under 12 hours light/dark cycle, fed with normal rodent chow and were allowed food and water ad libitum. Hydration and clinical conditions of the animals were monitored daily.
Male and female Balb/c mice (weighing approximately 0.025 kg) were purchased from Charles River Laboratories (Wilmington, Mass.). The animals were allowed food and water ad libitum. Blood samples were collected (0.2 mL from the rats via the tail vein and by cardiac puncture from the mice) at various timepoints (5 mice at each timepoint) allowed to clot for 30 minutes at room temperature, centrifuged for 3 minutes at 13,200 rpm, the serum transferred to eppendorf tubes and stored frozen at −80° C.

[2] = Pharmacokinetics of hu2B5.7 and hu2B5.4 in Sprague-Dawley rats; type: in vivo; conditions: male Sprague-Dawley rats, IV 4 mg/kg
Method: Pharmacokinetic parameters were calculated by non-compartmental analysis using WinNonlin.
MSD streptavidin plates (Meso Scale Discovery) were washed with phosphate buffered saline containing 0.05% Tween-20 (diluted from 10×PBS, Abbott Bioresearch Center, Media Room, Worcester, Mass. and Tween-20, Sigma, St. Louis, Mo.). Plates were blocked with 250 μL/well blocking solution (MSD Block, Meso Scale Discovery, diluted to 3% final concentration in PBS) for 1 hour, covered, with shaking (600 rpm) at room temperature. After washing, 70 μL of biotinylated PGE2 (Prostoglandin E2-biotinamide, Cayman Chemical, Ann Arbor, Mich., cat# 10006987, lot# 190831-191028; 0.01 ug/mL in assay buffer) was added to each well. The plates were covered and incubated with shaking (600 rpm) for 1 hour at room temperature.
as §1, with “rat” for “rat and mouse”, “serum.” for “serum. A”
as §2, with “μL” for “μL of”, “anti-human” for “anti-mouse”
as §3
as §4, with “JVC)” for “JVC) and regular”, “male” for “male and female”, “under a” for “under”, “hour” for “hours”
0.2 mL blood samples were collected from the rats at various timepoints, allowed to clot for 30 minutes at room temperature, centrifuged for 3 minutes at 13,200 rpm, the serum transferred to eppendorf tubes and stored frozen at −80° C.

Molecule | AUC0-∞ ([1]; female) [mg·h/mL] | CL ([1]; female) [mL/h/kg] | MRT ([1]; female) [days] | Vss ([1]; female) [mL/kg] | Vz ([1]; female) [mL/kg] | T½ ([1]; female, 4 mg/kg) | AUC0-∞ ([1]; male) [mg·h/mL] | CL ([1]; male) [mL/h/kg] | MRT ([1]; male) [days] | T½ ([1]; male) [days] | Vss ([1]; male) [mL/kg] | Vz ([1]; male) [mL/kg] | AUC0-∞ [2] [mg·h/mL] | CL [2] [mL/h/kg] | MRT [2] [days] | T½ [2] [days] | Vss [2] [mL/kg] | Vz [2] [mL/kg]
B1 | 12.0 ± 4.6 | 0.37 ± 0.13 | 10.8 ± 3.5 | 88 ± 6.2 | 101 ± 13.1 | 8.9 days and 8.5 ± 2.2 days | 9.9 ± 0.7 | 0.41 ± 0.03 | 12.6 ± 1.6 | 9.1 | 122 ± 18.5 | 127 ± 18.9 |  |  |  |  |  | 
B2 |  |  |  |  |  |  |  |  |  |  |  |  | 11.8 ± 2.0 | 0.35 ± 0.07 | 18.0 ± 6.0 | 12.4 | 145 ± 31.8 | 143 ± 40.2
